Source: the RNAGym collection of RNA variant scans (doi:10.7554/elife.80360)

B1: HDV Ribozyme (parent)
chain: GGCCGGCAUGGUCCCAGCCUCCUCGCUGGCGCCGGCUGGGCAACAUUCCGAGGGGACCGUCCCCUCGGUAAUGGCGAAUGGGACCCA

Variants of: B1
Assay: self-cleavage, relative activity (ratio to wild type); higher = more cleavage; co-transcriptional

Variant | self-cleavage
C30U A56U | 0.782
U20C C63A | 0.0898
G35U G40A | 0.304
C14U U46A | 0.554
G39U C75A | 0.166
U27G C49U | 0.957
C13A C48U | 0.284
G11A A45G | 0.403
U23C C64U | 0.786
G2C G39A | 0.121
G35A G38C | 0.0652
G55C A56U | 1.01
G55U C61G | 1.11
U23C U27C | 0.65
C18G U20A | 0.161
G40A C75G | 0.305
U46A C58A | 0.57
A78U C84U | 0.252
C44U A45U | 0.787
G25A A87U | 0.277
C15A A42U | 0.269
A8U G55C | 1.04
A16G C18G | 0.111
G1U C14G | 0.397

Variant | self-cleavage
G2U G29C | 0.0252
A42U U79G | 0.222
C4A C61G | 0.193
G17U C32A | 0.136
G31C U79A | 0.17
G53C C64G | 0.268
C3U G29A | 0.0154
C19G U27A | 0.0615
C75U G76U | 0.271
A45C U47C | 0.598
G29A C66A | 0.191
G10U G29C | 0.0615
A8U C64G | 0.856
A42U A77G | 0.464
C24U C58G | 0.811
C7U C66U | 0.665
C33G G50A | 0.148
G1A C33A | 0.0554
G38C G59C | 0.266
C7G A45G | 0.217
G29U G82A | 0.0282
C15U U72A | 0.485
C33G A71U | 0.213
C49G A78G | 0.266

Variant | self-cleavage
C7U A51C | 0.643
C15U C66A | 1.11
G6U C48A | 0.542
C3A U72C | 0.198
G29A | 0.186
A51C G55A | 0.873
C24U G67C | 0.78
A16G G73C | 0.431
G73A C84G | 0.345
C22U G52U | 0.795
U20A G73U | 0.0354
C3U A83U | 0.17
C19G C84A | 0.0898
G6A C63U | 0.743
G39C A70U | 0.0308
C58A C75G | 0.116
C15A G17A | 0.302
C18G G81U | 0
G17U C64U | 0.521
G11U C64A | 0.256
U9A C18G | 0.369
C3U C48U | 0.804
U69G | 0.981
U23C G76A | 1.22

Variant | self-cleavage
G2C G59A | 0.0193
G11A C22U | 0.041
A56C C64G | 0.831
U20C U72A | 0.123
G34C G55C | 0.261
C63U A71G | 1.03
C36A U47A | 0.196
C30G C86G | 0.0536
U9C C24A | 0.864
G5U C84A | 0.302
G28U C41A | 0.138
G6A G67U | 0.692
C13A C61U | 0.185
A43G U69G | 0.867
G1C C48U | 0.227
G39A A70C | 0.277
C13G C62U | 0.0369
U12G C26G | 1.08
G52U U65C | 0.658
C19G C21U | 0.122
G31A C64U | 0.409
C19U A87U | 0.149
C18G C58U | 0.0978
C32U C44G | 0.374

Variant | self-cleavage
C13A C57U | 0.175
G34A C58G | 0.177
A8C U20A | 0.0615
G40C G59C | 0.229
U12A C15A | 0.19
C26G C85A | 1.06
A78U G81C | 0.213
G11U U23A | 0.437
G31C A43G | 0.104
C3A C14G | 0.17
A71C G80U | 0.182
C41A A56C | 0.937
C24G G81C | 0.032
C64A C85A | 0.623
C14A U69A | 0.997
G54A U72C | 0.61
C33U C61A | 0.721
C14U C75A | 0.208
G11A C19G | 0.0231
A56U A83C | 0.499
C19G G39C | 0.0978
G80C C86A | 0.213
C14A U65C | 0.864
A43U A70U | 0.59

Variant | self-cleavage
C4G C26U | 0.684
G40C A71C | 0.121
G6C A70U | 0.185
A43G G50A | 0.502
C32G U60G | 0.196
G11A G59A | 0.38
G5C G73U | 0.0504
C57U A87G | 0.979
C57U A87C | 1.17
U9G U37C | 1.37
C41G G67A | 0.456
G31A C36U | 0.241
C4G C24U | 0.193
U27G G50U | 0.88
G25A C33G | 0.0228
U37A G39U | 0.122
C14A G17C | 0.123
G59C G67A | 1.06
G5U U47A | 0.378
U12C G82A | 0.0923
C3U C66U | 0.753
C36A A51U | 0.17
C49U G81A | 0.378
A16C A70G | 0.923

Variant | self-cleavage
G28C C30U | 0.0791
A42C G53U | 0.231
C15U G54U | 0.901
G29C G74C | 0.032
G2A C49U | 0.237
C24G A42G | 0.185
A43U U65G | 0.302
C36U C57U | 0.679
U37A G52C | 0.213
A8C C84G | 0.208
U9A U60G | 0.9
U9A G82C | 0.332
G39U G68A | 0.841
A16U U20A | 0.0875
G31U G67U | 0.297
C32A A56U | 0.369
U46C G73A | 0.475
C49A C64A | 0.284
G1U G10C | 0.292
G38C U47A | 0.249
U46G G55U | 0.569
C30U C57U | 0.932
C66A C84G | 0.692
G25A G59U | 0.264

Variant | self-cleavage
A42C G55C | 0.243
C36U C58G | 0.759
C26U A77U | 0.641
G59A G82U | 0.467
C3A C18A | 0.0282
G1C A71U | 0
A16U G34U | 0.128
C3U C33A | 0.123
G67A A78G | 0.604
G6A G29C | 0.0326
C15A C49G | 0.166
C24A G59A | 0.842
C18G U37G | 0.0692
C32G C57A | 0.106
C15G C49U | 0.554
C62U A70G | 1.09
G74C A77U | 0.104
U47C C84U | 0.475
G34U U79G | 0.0978
C15G G52C | 0.95
C49U C66G | 0.892
U27C G40C | 0.415
A56U C57U | 0.886
C24U G38A | 0.0863

Variant | self-cleavage
G34U A56U | 0.18
U12C U47G | 0.119
G39U A87U | 0.683
C21G A70C | 0.225
G17A G38A | 0.104
A8C A77U | 0.356
G35A G59U | 0.646
A56G C66A | 0.909
G5A A78G | 0.178
G17U U46C | 0.356
U23A C26A | 1.23
G25U G34A | 0.0573
C26U G73C | 0.492
C14G C26G | 0.692
C14A A71C | 0.166
U37G G59C | 0.192
C36U G59A | 0.704
G55A C62A | 1.01
G28A G53U | 0.0615
A8U U79G | 0.289
C22U C85A | 0.59
G5U G50U | 0.795
G38U C66G | 0.0764
C24G C63G | 0.217

Variant | self-cleavage
G80C A83U | 0.164
G39C A78G | 0.0573
C48U G50U | 0.742
U12C A42U | 0
G35A A83C | 0.0692
C30A G38U | 0.107
G2C G28A | 0.0475
G53A G76U | 1.11
G10A U72G | 0.378
A16U U69A | 0.911
C24A | 0.767
G2C C61G | 0.0647
G2U G38C | 0.0181
C48A G59A | 1.22
G5U C15U | 0.723
G68U A83G | 0.407
A16G A77G | 0.831
G2C A45G | 0.107
G38U A83G | 0.0866
C36A C84G | 0.208
G10U C75G | 0.0563
C21U U46G | 0.0978
U9C C36U | 0.682
C3G G82A | 0.19

Variant | self-cleavage
C48U G74A | 0.517
G29C U46G | 0.0723
C48A A51G | 0.903
G31C C48A | 0.449
G54U U79A | 0.982
C3U C57U | 0.794
C49A G82U | 0.437
A8C A51U | 0.831
G6A U69C | 0.631
U20A U47C | 0.0594
G2U G35A | 0.0308
G17A G55A | 0.705
G82A C86G | 0.279
G50A A51G | 1.03
C13G G28A | 0
C58U C63U | 1.04
G5A G55A | 0.237
A51C G68C | 0.762
U23G G74C | 0.188
G6U G29A | 0.102
C4U G81U | 0.0723
C19A G39A | 0.114
U47G G50U | 0.831
G25U A87C | 0.0755

Variant | self-cleavage
C3A C15U | 0.371
U27G A42U | 0.229
C24U A77G | 0.53
C22G U27G | 0.0978
A51C U72C | 0.475
C33U C64G | 0.736
G34A C66A | 0.286
G31A A45G | 0.422
U9G A77U | 0.604
C36A A83C | 0.0791
C7U G34A | 0.0302
C49A U65C | 0.923
U46A U60G | 0.939
C41A G59U | 1.11
C33G C85G | 0.151
G2U C3U | 0.0228
G40U C62G | 0.467
G59U A83U | 0.486
G11U A87C | 0.415
C3A U60G | 0.471
U9G C75G | 0.0791
C36G C41U | 0.199
U27A G55C | 0.864
C3A A51C | 0.374

Variant | self-cleavage
C14U G54U | 1.23
C36G G82U | 0.142
C26A A43C | 0.665
C7U U37G | 0.19
A16U U65G | 0.997
G35C C57A | 0.302
U12G G17C | 0.192
G35A U47A | 0.466
C22G G53U | 0.0563
C4A C66U | 0.361
G50U G53A | 0.971
U12G C84G | 0.256
G40A C61A | 0.839
A43G G52A | 0.577
C4G G39A | 0.0183
C26G G59U | 0.831
C13A C49G | 0.0326
G1U G54A | 0.277
C49A G53U | 0.608
G53U G55A | 1.18
A16C C32U | 0.332
U20G A71C | 0
G35A G76A | 0.709
G39C U47A | 0.243

Variant | self-cleavage
C15U C32G | 0.0489
G11C C26U | 0.895
C15A C26U | 0.895
G1U G17C | 0.341
U72G A87G | 0.546
C21G G25A | 0.185
U12G A42C | 0.217
C4G G50C | 0.237
C24A G80U | 0.198
C7G A8C | 0
G34U C66G | 0.164
U23A C36G | 0.17
C24U U79A | 0.208
G35C G73C | 0.269
G28C C84G | 0.0332
U37G G53A | 0.147
C18G C41U | 0.161
C44U G76C | 0.725
U12A C62U | 0.252
G53U C61U | 0.994
U23C U60C | 0.858
U37C U47C | 0.791
